From PMC314469, “Protein Interaction Networks by Proteome Peptide Scanning” (PLoS Biology, 2004)
Blank lines part the entries; values can stand above or below the binder they belong to.

How the values were obtained:
Experiment in all cases: SPOT array
[1] = target: T1, Boi2 SH3 (BOI2_YEAST), P39969
T1 chain: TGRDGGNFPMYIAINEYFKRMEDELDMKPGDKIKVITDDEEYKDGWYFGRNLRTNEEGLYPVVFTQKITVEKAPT

[2] = target: T2, Yhr016c SH3 (YSC84_YEAST), P32793
T2 chain: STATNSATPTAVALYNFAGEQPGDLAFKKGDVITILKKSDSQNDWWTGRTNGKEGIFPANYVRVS

[3] = target: T3, Rvs167 SH3 (RV167_YEAST), P39743
T3 chain: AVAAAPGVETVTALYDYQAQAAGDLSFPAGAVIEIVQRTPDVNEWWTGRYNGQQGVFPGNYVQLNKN

[4] = target: T4, Yfr024 SH3 (LSB3_YEAST), P43603
T4 chain: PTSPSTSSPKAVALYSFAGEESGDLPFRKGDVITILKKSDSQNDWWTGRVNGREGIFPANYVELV

[5] = target: T5, Boi1 SH3 (BOI1_YEAST), P38041
T5 chain: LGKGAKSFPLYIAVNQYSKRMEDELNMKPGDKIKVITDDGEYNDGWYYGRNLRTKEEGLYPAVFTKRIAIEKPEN

B2: YIL054W 33-46 (peptide)
chain: YTNPRAPGKLQDSH
normalised SPOT signal, Boehringer light units (BLU); mean over the file's lines of this peptide [1]: 26.1 | normalised SPOT signal, Boehringer light units (BLU); mean over the file's lines of this peptide [2]: 238 | normalised SPOT signal, Boehringer light units (BLU); mean over the file's lines of this peptide [3]: 64.7 | normalised SPOT signal, Boehringer light units (BLU); mean over the file's lines of this peptide [4]: 478 | normalised SPOT signal, Boehringer light units (BLU); mean over the file's lines of this peptide [5]: 153

B3: YDR390C 151-164 (peptide)
chain: YMQPIIPGKTESFE
normalised SPOT signal, Boehringer light units (BLU); mean over the file's lines of this peptide [1]: 259 | normalised SPOT signal, Boehringer light units (BLU); mean over the file's lines of this peptide [2]: 272 | normalised SPOT signal, Boehringer light units (BLU); mean over the file's lines of this peptide [3]: 498 | normalised SPOT signal, Boehringer light units (BLU); mean over the file's lines of this peptide [4]: 596 | normalised SPOT signal, Boehringer light units (BLU); mean over the file's lines of this peptide [5]: 62.4

B5: YKL178C 366-379 (peptide)
chain: YRIPDDPRKSQNKS
normalised SPOT signal, Boehringer light units (BLU); mean over the file's lines of this peptide [1]: 71.9 | normalised SPOT signal, Boehringer light units (BLU); mean over the file's lines of this peptide [2]: 80.5 | normalised SPOT signal, Boehringer light units (BLU); mean over the file's lines of this peptide [3]: 21.3 | normalised SPOT signal, Boehringer light units (BLU); mean over the file's lines of this peptide [4]: 351 | normalised SPOT signal, Boehringer light units (BLU); mean over the file's lines of this peptide [5]: 95.9

B6: YLR213C 295-308 (peptide)
chain: YRYPQTPMRLEIAV
normalised SPOT signal, Boehringer light units (BLU); mean over the file's lines of this peptide [1]: 146 | normalised SPOT signal, Boehringer light units (BLU); mean over the file's lines of this peptide [2]: 365 | normalised SPOT signal, Boehringer light units (BLU); mean over the file's lines of this peptide [3]: 90.7 | normalised SPOT signal, Boehringer light units (BLU); mean over the file's lines of this peptide [4]: 1060 | normalised SPOT signal, Boehringer light units (BLU); mean over the file's lines of this peptide [5]: 208

B7: YHR072W 222-235 (peptide)
chain: YSLPMHPGRWWVHT
normalised SPOT signal, Boehringer light units (BLU); mean over the file's lines of this peptide [1]: 158 | normalised SPOT signal, Boehringer light units (BLU); mean over the file's lines of this peptide [2]: 308 | normalised SPOT signal, Boehringer light units (BLU); mean over the file's lines of this peptide [3]: 78.1 | normalised SPOT signal, Boehringer light units (BLU); mean over the file's lines of this peptide [4]: 712 | normalised SPOT signal, Boehringer light units (BLU); mean over the file's lines of this peptide [5]: 79.5

B9: YIL162W 315-328 (peptide)
chain: AFVPTNPWRSSMSL
normalised SPOT signal, Boehringer light units (BLU); mean over the file's lines of this peptide [1]: 39.8 | normalised SPOT signal, Boehringer light units (BLU); mean over the file's lines of this peptide [2]: 58.7 | normalised SPOT signal, Boehringer light units (BLU); mean over the file's lines of this peptide [3]: 57 | normalised SPOT signal, Boehringer light units (BLU); mean over the file's lines of this peptide [4]: 840 | normalised SPOT signal, Boehringer light units (BLU); mean over the file's lines of this peptide [5]: 294

B11: YEL040W 243-256 (peptide)
chain: YQYPQTPSKVDISI
normalised SPOT signal, Boehringer light units (BLU); mean over the file's lines of this peptide [1]: 36.3 | normalised SPOT signal, Boehringer light units (BLU); mean over the file's lines of this peptide [2]: 73.9 | normalised SPOT signal, Boehringer light units (BLU); mean over the file's lines of this peptide [3]: 74.2 | normalised SPOT signal, Boehringer light units (BLU); mean over the file's lines of this peptide [4]: 141 | normalised SPOT signal, Boehringer light units (BLU); mean over the file's lines of this peptide [5]: 36.3

B12: YGR031W 269-282 (peptide)
chain: AAWPLDPARERWTR
normalised SPOT signal, Boehringer light units (BLU); mean over the file's lines of this peptide [1]: 52.7 | normalised SPOT signal, Boehringer light units (BLU); mean over the file's lines of this peptide [2]: 134 | normalised SPOT signal, Boehringer light units (BLU); mean over the file's lines of this peptide [3]: 25.5 | normalised SPOT signal, Boehringer light units (BLU); mean over the file's lines of this peptide [4]: 300 | normalised SPOT signal, Boehringer light units (BLU); mean over the file's lines of this peptide [5]: 549

B14: YLR305C 1424-1437 (peptide)
chain: YWAPVSPLKSINLF
normalised SPOT signal, Boehringer light units (BLU); mean over the file's lines of this peptide [1]: 231 | normalised SPOT signal, Boehringer light units (BLU); mean over the file's lines of this peptide [2]: 168 | normalised SPOT signal, Boehringer light units (BLU); mean over the file's lines of this peptide [3]: 25.1 | normalised SPOT signal, Boehringer light units (BLU); mean over the file's lines of this peptide [4]: 1590 | normalised SPOT signal, Boehringer light units (BLU); mean over the file's lines of this peptide [5]: 104

B16: YKL104C 225-238 (peptide)
chain: AGQPEIPLKSNNKS
normalised SPOT signal, Boehringer light units (BLU); mean over the file's lines of this peptide [1]: 33.5 | normalised SPOT signal, Boehringer light units (BLU); mean over the file's lines of this peptide [2]: 102 | normalised SPOT signal, Boehringer light units (BLU); mean over the file's lines of this peptide [3]: 0 | normalised SPOT signal, Boehringer light units (BLU); mean over the file's lines of this peptide [4]: 1260 | normalised SPOT signal, Boehringer light units (BLU); mean over the file's lines of this peptide [5]: 69.5

B17: YFR048W 228-241 (peptide)
chain: YTLPLLPGKGGFRI
normalised SPOT signal, Boehringer light units (BLU); mean over the file's lines of this peptide [1]: 20.3 | normalised SPOT signal, Boehringer light units (BLU); mean over the file's lines of this peptide [2]: 96.3 | normalised SPOT signal, Boehringer light units (BLU); mean over the file's lines of this peptide [3]: 28.3 | normalised SPOT signal, Boehringer light units (BLU); mean over the file's lines of this peptide [4]: 474 | normalised SPOT signal, Boehringer light units (BLU); mean over the file's lines of this peptide [5]: 107

B19: YDR420W 1404-1417 (peptide)
chain: YSNPQTPLRSLAGL
normalised SPOT signal, Boehringer light units (BLU); mean over the file's lines of this peptide [1]: 104 | normalised SPOT signal, Boehringer light units (BLU); mean over the file's lines of this peptide [2]: 1600 | normalised SPOT signal, Boehringer light units (BLU); mean over the file's lines of this peptide [3]: 260 | normalised SPOT signal, Boehringer light units (BLU); mean over the file's lines of this peptide [4]: 2680 | normalised SPOT signal, Boehringer light units (BLU); mean over the file's lines of this peptide [5]: 80.5

B20: YDL246C 91-104 (peptide)
chain: AIEPGVPSRYSDET
normalised SPOT signal, Boehringer light units (BLU); mean over the file's lines of this peptide [1]: 22.8 | normalised SPOT signal, Boehringer light units (BLU); mean over the file's lines of this peptide [2]: 153 | normalised SPOT signal, Boehringer light units (BLU); mean over the file's lines of this peptide [3]: 35.9 | normalised SPOT signal, Boehringer light units (BLU); mean over the file's lines of this peptide [4]: 151 | normalised SPOT signal, Boehringer light units (BLU); mean over the file's lines of this peptide [5]: 63

B21: YKL108W 203-216 (peptide)
chain: YYGPNSPLKLDEEN
normalised SPOT signal, Boehringer light units (BLU); mean over the file's lines of this peptide [1]: 12.4 | normalised SPOT signal, Boehringer light units (BLU); mean over the file's lines of this peptide [2]: 36 | normalised SPOT signal, Boehringer light units (BLU); mean over the file's lines of this peptide [3]: 49.9 | normalised SPOT signal, Boehringer light units (BLU); mean over the file's lines of this peptide [4]: 0 | normalised SPOT signal, Boehringer light units (BLU); mean over the file's lines of this peptide [5]: 0

B22: YER114C 448-461 (peptide)
chain: YPSPAQPPKSPLLN
normalised SPOT signal, Boehringer light units (BLU); mean over the file's lines of this peptide [1]: 36.2 | normalised SPOT signal, Boehringer light units (BLU); mean over the file's lines of this peptide [2]: 22.5 | normalised SPOT signal, Boehringer light units (BLU); mean over the file's lines of this peptide [3]: 18.1 | normalised SPOT signal, Boehringer light units (BLU); mean over the file's lines of this peptide [4]: 526 | normalised SPOT signal, Boehringer light units (BLU); mean over the file's lines of this peptide [5]: 92.5

Further lines, results first:

normalised SPOT signal, Boehringer light units (BLU); mean over the file's lines of this peptide [1]: 352 | normalised SPOT signal, Boehringer light units (BLU); mean over the file's lines of this peptide [2]: 180 | normalised SPOT signal, Boehringer light units (BLU); mean over the file's lines of this peptide [3]: 343 | normalised SPOT signal, Boehringer light units (BLU); mean over the file's lines of this peptide [4]: 1770 | normalised SPOT signal, Boehringer light units (BLU); mean over the file's lines of this peptide [5]: 744
B1: YGL073W 526-539 (peptide)
chain: AGSPIRPYKQRYLL

normalised SPOT signal, Boehringer light units (BLU); mean over the file's lines of this peptide [1]: 53.6 | normalised SPOT signal, Boehringer light units (BLU); mean over the file's lines of this peptide [2]: 27400 | normalised SPOT signal, Boehringer light units (BLU); mean over the file's lines of this peptide [3]: 1060 | normalised SPOT signal, Boehringer light units (BLU); mean over the file's lines of this peptide [4]: 28800 | normalised SPOT signal, Boehringer light units (BLU); mean over the file's lines of this peptide [5]: 42.6
B4: YKR028W 957-970 (peptide)
chain: YTTPKTPPRPKTIL

normalised SPOT signal, Boehringer light units (BLU); mean over the file's lines of this peptide [1]: 198 | normalised SPOT signal, Boehringer light units (BLU); mean over the file's lines of this peptide [2]: 194 | normalised SPOT signal, Boehringer light units (BLU); mean over the file's lines of this peptide [3]: 109 | normalised SPOT signal, Boehringer light units (BLU); mean over the file's lines of this peptide [4]: 4960 | normalised SPOT signal, Boehringer light units (BLU); mean over the file's lines of this peptide [5]: 173
B8: YLR029C 39-52 (peptide)
chain: AARPTRPDKARRLG

normalised SPOT signal, Boehringer light units (BLU); mean over the file's lines of this peptide [1]: 88 | normalised SPOT signal, Boehringer light units (BLU); mean over the file's lines of this peptide [2]: 167 | normalised SPOT signal, Boehringer light units (BLU); mean over the file's lines of this peptide [3]: 170 | normalised SPOT signal, Boehringer light units (BLU); mean over the file's lines of this peptide [4]: 619 | normalised SPOT signal, Boehringer light units (BLU); mean over the file's lines of this peptide [5]: 158
B10: YAR061W 26-39 (peptide)
chain: ASLPVGPRKNGMNV

normalised SPOT signal, Boehringer light units (BLU); mean over the file's lines of this peptide [1]: 162 | normalised SPOT signal, Boehringer light units (BLU); mean over the file's lines of this peptide [2]: 895 | normalised SPOT signal, Boehringer light units (BLU); mean over the file's lines of this peptide [3]: 279 | normalised SPOT signal, Boehringer light units (BLU); mean over the file's lines of this peptide [4]: 6490 | normalised SPOT signal, Boehringer light units (BLU); mean over the file's lines of this peptide [5]: 138
B13: YNL330C 36-49 (peptide)
chain: AGHPMKPHRIRMAH

normalised SPOT signal, Boehringer light units (BLU); mean over the file's lines of this peptide [1]: 62.8 | normalised SPOT signal, Boehringer light units (BLU); mean over the file's lines of this peptide [2]: 107000 | normalised SPOT signal, Boehringer light units (BLU); mean over the file's lines of this peptide [3]: 59700 | normalised SPOT signal, Boehringer light units (BLU); mean over the file's lines of this peptide [4]: 47300 | normalised SPOT signal, Boehringer light units (BLU); mean over the file's lines of this peptide [5]: 98.4
B15: YCR088W 446-459 (peptide)
chain: AAQPPLPSRNVASG

normalised SPOT signal, Boehringer light units (BLU); mean over the file's lines of this peptide [1]: 26.9 | normalised SPOT signal, Boehringer light units (BLU); mean over the file's lines of this peptide [2]: 4390 | normalised SPOT signal, Boehringer light units (BLU); mean over the file's lines of this peptide [3]: 448 | normalised SPOT signal, Boehringer light units (BLU); mean over the file's lines of this peptide [4]: 24700 | normalised SPOT signal, Boehringer light units (BLU); mean over the file's lines of this peptide [5]: 4210
B18: YIR003W 42-55 (peptide)
chain: AGTPNVPTRRPILK
